{"source": "patent EP4365192A1", "key": {"[1]": {"target": "Recombinant Human FGFR1 alpha (IIIc) Fc Chimera Protein (R&D systems, 658-FR-050) (human) (UniProt P11362)", "sequence (P11362 22-376, change not shown)": "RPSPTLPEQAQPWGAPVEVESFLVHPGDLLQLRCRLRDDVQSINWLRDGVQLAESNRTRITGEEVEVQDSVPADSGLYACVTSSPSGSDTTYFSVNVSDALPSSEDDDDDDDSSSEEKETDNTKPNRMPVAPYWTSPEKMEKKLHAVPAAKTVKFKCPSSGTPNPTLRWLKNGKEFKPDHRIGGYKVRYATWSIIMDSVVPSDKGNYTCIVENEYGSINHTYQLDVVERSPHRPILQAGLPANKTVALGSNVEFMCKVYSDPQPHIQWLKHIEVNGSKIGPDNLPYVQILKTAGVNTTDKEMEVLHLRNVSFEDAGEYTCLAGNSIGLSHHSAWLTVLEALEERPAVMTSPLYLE", "assay": "ELISA: FGFR1 alpha (IIIc)-Fc coated at 0.5 ug/ml; FGF sample at 80 ng/mL after 6 h at 37°C; detected with biotinylated anti-FGF antibody BAM233 and streptavidin-HRP; blank subtracted"}, "[2]": {"target": "Recombinant Human FGFR1 alpha (IIIc) Fc Chimera Protein (R&D systems, 658-FR-050) (human) (UniProt P11362)", "assay": "ELISA: FGFR1 alpha (IIIc)-Fc coated at 0.5 ug/ml; FGF sample at 80 ng/mL after 24 h at 37°C; detected with biotinylated anti-FGF antibody BAM233 and streptavidin-HRP; blank subtracted"}, "[3]": {"target": "Recombinant Human FGFR1 alpha (IIIc) Fc Chimera Protein (R&D systems, 658-FR-050) (human) (UniProt P11362)", "assay": "ELISA: FGFR1 alpha (IIIc)-Fc coated at 0.5 ug/ml; FGF sample at 80 ng/mL after 0 h at 37°C; detected with biotinylated anti-FGF antibody BAM233 and streptavidin-HRP; blank subtracted"}, "[4]": {"target": "Recombinant Human FGFR1 alpha (IIIc) Fc Chimera Protein (R&D systems, 658-FR-050) (human) (UniProt P11362)", "assay": "ELISA: FGFR1 alpha (IIIc)-Fc coated at 0.5 ug/ml; FGF sample at 80 ng/mL after 48 h at 37°C; detected with biotinylated anti-FGF antibody BAM233 and streptavidin-HRP; blank subtracted"}}}
{"substance": "FGF301 (FGF2_native_Pig) (from UniProt P03969 10-155) (ligand)", "values": [{"measurement": "Absorbance (450 nm) (absorbance (450 nm))", "setting": "[1]", "value": 2.1}, {"measurement": "Absorbance (450 nm) (absorbance (450 nm))", "setting": "[2]", "value": 1.5}, {"measurement": "Absorbance (450 nm) (absorbance (450 nm))", "setting": "[3]", "value": 2.3}, {"measurement": "Absorbance (450 nm) (absorbance (450 nm))", "setting": "[4]", "value": 0.8}]}
